Patent publication US20250051456A1 (Hoffmann-La Roche, published 2025)

B1: HLA-G-0041 (antibody, V domains shown)
VH: EVQLLESGGGLVQPGGSLRLSCAASGFTFSTYGMSWVRQAPGKGLEWVSVISGGGVSTYYADSVKGRFTISRDNSKNTLYLQMNRLRAEDTAVYYCAKDGSYNYGYGDYFDYWGQGTLVTVSS
VL: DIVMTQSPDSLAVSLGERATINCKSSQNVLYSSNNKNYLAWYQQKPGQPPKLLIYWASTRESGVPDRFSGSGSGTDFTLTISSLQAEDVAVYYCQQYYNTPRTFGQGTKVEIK
B2: HLA-G-0031 (antibody, V domains shown)
VH: QVKLMQSGAALVKPGTSVKMSCNASGYTFTDYWVSWVKQSHGKRLEWVGEISPNSGASNFDENFKDKATLTVDKSTSTAYMELSRLTSEDSAIYYCTRSSHGSFRWFAYWGQGTLVTVSS
VL: AIVLNQSPSSIVASQGEKVTITCRASSSVSSNHLHWYQQKPGAFPKFVIYSTSQRASGIPSRFSGSGSGTSYSFTISRVEAEDVATYYCQQGSSNPYTFGAGTKLELK
B3: HLA-G-0090 (antibody, V domains shown)
VH: QVQLQQSGPGLLKPSQTLSLTCAISGDSVSSNRAAWNWIRQSPSRGLEWLGRTYYRSKWYNDYAVSVQGRITLIPDTSKNQFSLRLNSVTPEDTAVYYCASVRAVAPFDYWGQGVLVTVSS
VL: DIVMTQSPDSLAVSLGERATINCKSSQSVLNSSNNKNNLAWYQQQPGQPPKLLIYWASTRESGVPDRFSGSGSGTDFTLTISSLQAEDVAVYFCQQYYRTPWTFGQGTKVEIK

Assays:
[1] = biological target: human HLA-G expressed on cells (JEG3 naturally; Skov3 and PA-TU-8902 transfectants) (human); assay: cell-based or functional assay
[2] = biological target: T1, monomeric human HLA-G β2M MHC class I complex (soluble recombinant wt HLA-G) (human); assay: ELISA, biotinylated wt HLA-G monomer on streptavidin plate; the 6th table ELISA series (monomer, dimer, trimer), separate from the 7th table
T1 construct: also called HLA-G-0003; wt HLA-G (monomer)
Procedure: The above table summarizes the binding of different rat anti-human HLA-G monoclonal antibodies, derived from wt protein IMS. Shown are the relative EC50 values [ng/ml] of the respective binding to rec. wt monomeric, dimeric and trimeric HLA-G proteins as assessed by ELISA. The ELISA was set up by coating the biotinylated wt HLA-G antigen to strepdavidin plates. After incubation and washing steps, the respective antibodies were bound in a concentration range from […] in 1:2 dilution steps. Detection of bound antibodies was carried out by anti-Fc-antibody-POD conjugates. EC50 values were determined from the resulting binding curves at the antibody concentrations generating the half-maximal signal. In case of the non-biotinylated HLA-G dimer and trimer antigens, immobilization was carried out by random coating on assay plates.

Row | Binder | % TNF release (restoration), different donor, JEG-3 wt co-culture; antibody 0.16 µg/ml [1] | % TNF release (restoration), different donor, JEG-3 wt co-culture; antibody 0.63 µg/ml [1] | % TNF release (restoration), different donor, JEG-3 wt co-culture; antibody 2.5 µg/ml [1] | % TNF release (restoration), different donor, JEG-3 wt co-culture; antibody 10 µg/ml [1] | EC50 [2]
1 | B1 | 44% | 66% | 59% | 40% | 4.95 ng/mL
2 | B2 | 14% | 44% | 67% | 74% | 
3 | B3 | 198% | 219% | 233% | 221% | 
